PMC6052347, “Structure and Function of the Campylobacter jejuni Chromosome Replication Origin”

Target: T1, 6HisCj1509 (Campylobacter jejuni 81116 (NCTC11828)?, UniProt Q0P820 1-295)
T1 sequence: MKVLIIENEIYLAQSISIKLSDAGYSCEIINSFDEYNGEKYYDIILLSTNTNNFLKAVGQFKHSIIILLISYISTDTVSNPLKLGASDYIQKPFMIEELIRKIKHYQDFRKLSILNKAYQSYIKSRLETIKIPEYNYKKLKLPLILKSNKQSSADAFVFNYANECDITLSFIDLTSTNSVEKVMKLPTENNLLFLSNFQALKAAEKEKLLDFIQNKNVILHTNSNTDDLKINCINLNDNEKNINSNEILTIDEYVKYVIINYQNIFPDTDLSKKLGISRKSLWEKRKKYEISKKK
Test: EMSA; higher affinity than boxes 1 and 3; EMSA: room temperature, 15 min, up to 30 nM DnaA or 400 nM Cj1509, 4% PAGE in 1x TBE; box probes 0.4 uM; binding buffer not given (as in Jaworski 2016); DnaA with 5 mM ATP (footprinting) or 3 mM ATP (EM)
Conditions: protein: recombinant; tags: N-terminal 6xHis (pET28a); chain copies: 2; label: FAM 5' on E7; blunt; three strands, nick between E7 and E10, E11 complementary to E7+E10

B1: Cj1509 box 2 probe (E7-E10-E11) (dsDNA)
DNA 1: GTGCCCTGGTCTGG
DNA 2: TTTGAAGAATGTTACAATTTCAACA
DNA 3: TGTTGAAATTGTAACATTCTTCAAACCAGACCAGGGCAC
B1: binds.
